Results as given in patent US20190135932A1 (Pfizer, published 2019).
Values joined by “and” are separate entries in the source; they are usually repeats but may differ in a detail not shown here. Equal values may be shown once.

Tests used:
[1] = molecular target: T1, CD137-Ig (R&D Systems) (human, UniProt Q07011 24-186); assay: ELISA on coated receptor-Ig fusion protein
T1 construct: extracellular domain; Bought; also called 4-1BB receptor (CD137)
Description: (§1) Maxisorb 96-well plates (Nunc, Roskilde, Denmark) were coated with 100 μl of human TNFα receptor family member fusion proteins at 0.25 μg/ml diluted in BupH™ Carbonate buffer, pH 9.4 (Pierce, Rockford, Ill.) and incubated overnight at 4° C. The selectivity receptor fusion proteins tested included CD40-Ig (Alexis Biochemicals, San Diego, Calif.), CD137-Ig (R&D Systems, Minneapolis, Minn.) and CD271-Ig (Alexis Biochemicals, San Diego, Calif.). Also included as the positive control with each assay was the OX40-Ig fusion protein (in-house construct, Bioexpress, 97/2117). Plates were then washed three times with wash buffer containing 0.05% Tween 20 (Sigma, St Louis, Mo.) diluted in PBS and blocked with 300 μl of 0.5% BSA (Sigma, St Louis, Mo.) in PBS (Sigma, St Louis, Mo.) for 1 hour at RT°. Next, the plates were washed and 100 μl/well of anti-human OX40 reactive antibodies were added to the plates at various concentrations and incubated for 1 hour at RT°. Plates were thoroughly washed three times and OX40R antibody binding was detected with a horse radish peroxidase labeled anti-human kappa chain antibody (Bethyl Laboratories, Montgomery, Tex.) at 25 ng/ml for 1 hour at RD°. Plates were then washed three times which was followed by the addition of 100 μl/well of 1-Step Turbo-TMB substrate (Pierce, Rockford, Ill.) for 30 minutes at RT. The reaction was stopped by adding an equal volume of 2M H₂ SO₄. Absorbance was read at 450 nm on a Molecular Devices Spectra Max 340 (Molecular Devices, Sunnyvale, Calif.).

[2] = molecular target: T2, CD271-Ig (Alexis Biochemicals) (human, UniProt P08138 29-250); assay: ELISA on coated receptor-Ig fusion protein
T2 construct: extracellular domain; Bought; also called nerve growth factor receptor (CD271)
Description: as §1

[3] = molecular target: T3, CD40-Ig (Alexis Biochemicals) (human, UniProt P25942 21-193); assay: ELISA on coated receptor-Ig fusion protein
T3 construct: extracellular domain; Bought; also called CD40 receptor
Description: as §1

[4] = molecular target: T4, recombinant human OX40-CD40 fusion construct (amino acids 1-235 of OX40, 216-278 of CD40) expressed on 300-19 … (human, UniProt P43489 29-235; P25942 216-277); assay: FACS saturation binding on OX40R+ 300-19 cells (N = 2)
T4 construct: range 1-235;range 216-278; also called OX40R+ 300-19 cells; OX40R transfected cells
T4 sequence (looked up): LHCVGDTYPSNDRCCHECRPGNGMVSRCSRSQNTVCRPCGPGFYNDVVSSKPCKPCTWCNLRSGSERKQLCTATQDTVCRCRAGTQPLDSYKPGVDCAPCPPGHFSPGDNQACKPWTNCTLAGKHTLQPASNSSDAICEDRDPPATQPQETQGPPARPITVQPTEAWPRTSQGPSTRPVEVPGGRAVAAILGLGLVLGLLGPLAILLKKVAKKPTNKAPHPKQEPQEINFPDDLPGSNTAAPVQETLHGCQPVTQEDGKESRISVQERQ
Description: (§2) OX40R-expressing cell lines (see below) or activated primary peripheral blood mononuclear cells (see below) were used to assess binding on both the human and cynomolgus OX40 receptors. Cells were harvested and washed (5×10⁵/tube) using wash buffer at RT°. The wash buffer consisted of PBS, 2% heat-inactivated fetal bovine serum (Hyclone, Logan, Utah) and 0.02% sodium azide (Sigma, St. Louis, Mo.). Next, 100 μl of various concentrations of antibody was added to the cells (starting at 30 ug/ml and using a 3-fold titration) diluted in wash buffer containing 0.005 mg/ml of cytocholasin B (Sigma, St. Louis, Mo.). The cells were gently rocked at RT° for 3 hours. Next, the cells were washed twice and resuspended in 0.5 ml/tube with cold wash buffer and 10,000 events were collected and analyzed using a Becton Dickinson FACSCalibur and CellQuest software (San Jose, Calif.).

[5] = molecular target: T5, human OX40R on activated primary human T cells (human, UniProt P43489 29-277); assay: FACS saturation binding on CD3/CD28 stimulated human T cells (N = 4)
T5 construct: whole, on cells; also called CD3/CD28 stimulated T cells; human PBMC's stimulated with anti-CD3 and anti-CD28
T5 sequence (looked up): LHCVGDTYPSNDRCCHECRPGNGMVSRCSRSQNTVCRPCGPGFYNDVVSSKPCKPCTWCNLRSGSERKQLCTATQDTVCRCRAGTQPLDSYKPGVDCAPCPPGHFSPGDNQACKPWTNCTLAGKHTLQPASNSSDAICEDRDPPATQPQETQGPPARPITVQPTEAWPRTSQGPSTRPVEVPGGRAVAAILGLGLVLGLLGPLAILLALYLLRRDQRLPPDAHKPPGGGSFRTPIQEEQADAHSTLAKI
Description: as §2
Human whole blood was collected into heparinized syringes (Baxter; Deerfield, Ill.) and then immediately transferred to Sigma Accuspin tubes (Sigma, St. Louis, Mo.) for the isolation of peripheral blood mononuclear cells (PBMC) as described by the manufacturer. The PBMC were washed twice with DPBS and T lymphocytes were isolated using a T cell purification column as described by the manufacturer (R & D Systems, Minneapolis, Minn.). […]

[6] = molecular target: cynomolgus OX40R on activated cynomolgus monkey T cells / PBMCs (cynomolgus monkey); assay: cell-based or functional assay
[7] = molecular target: T6, OX40R extracellular and transmembrane domain fused to the intracellular domain of CD40, in 293 cells with an … (UniProt P43489 29-235; P25942 216-277, limits assumed); assay: cell-based or functional assay
T6 sequence (looked up): T4 sequence (looked up)

T2 sequence (P08138 29-250): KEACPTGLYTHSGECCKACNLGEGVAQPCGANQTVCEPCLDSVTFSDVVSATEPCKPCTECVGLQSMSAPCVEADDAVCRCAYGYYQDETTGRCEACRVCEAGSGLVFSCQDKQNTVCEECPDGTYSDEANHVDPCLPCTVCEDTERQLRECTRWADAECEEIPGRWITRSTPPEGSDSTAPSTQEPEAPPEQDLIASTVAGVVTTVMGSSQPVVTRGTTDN
T1 sequence (Q07011 whole entry, the tested form may be a part): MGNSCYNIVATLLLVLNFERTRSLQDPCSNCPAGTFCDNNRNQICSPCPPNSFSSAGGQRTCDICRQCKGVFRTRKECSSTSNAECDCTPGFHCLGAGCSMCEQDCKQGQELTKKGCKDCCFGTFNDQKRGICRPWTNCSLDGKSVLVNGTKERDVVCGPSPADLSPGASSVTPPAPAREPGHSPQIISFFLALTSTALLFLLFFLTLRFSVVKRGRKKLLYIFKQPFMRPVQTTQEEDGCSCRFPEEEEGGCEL
T3 sequence (P25942 21-193): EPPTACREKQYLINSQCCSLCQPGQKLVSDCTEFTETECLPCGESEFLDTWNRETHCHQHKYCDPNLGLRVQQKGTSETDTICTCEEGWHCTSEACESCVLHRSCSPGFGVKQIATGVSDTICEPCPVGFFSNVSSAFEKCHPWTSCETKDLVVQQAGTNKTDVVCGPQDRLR

B1: human monoclonal antibody 18D8 (antibody, human IgG2, kappa, V domains shown)
VH: EVQLVESGGGLVQPGRSLRLSCAASGFTFDDYAMHWVRQAPGKGLEWVSGISWNSGSIGYADSVKGRFTISRDNAKNSLYLQMNSLRAEDTALYYCAKDQSTADYYFYYGMDVWGQGTTVTVSS
VL: EIVVTQSPATLSLSPGERATLSCRASQSVSSYLAWYQQKPGQAPRLLIYDASNRATGIPARFSGSGSGTDFTLTISSLEPEDFAVYYCQQRSNWPTFGQGTKVEIKR
Selectivity (Binding to CD40, CD137, CD271) [1]: > 700 nM
Selectivity (Binding to CD40, CD137, CD271) [2]: > 700 nM
Selectivity (Binding to CD40, CD137, CD271) [3]: > 700 nM
EC50 [4]: 0.24 µg/mL and 1.66 nM
EC50 [5]: 1.06 µg/mL and 7.3 nM

B2: human monoclonal antibody 11D4 (antibody, V domains shown)
VH: EVQLVESGGGLVQPGGSLRLSCAASGFTFSSYSMNWVRQAPGKGLEWVSYISSSSSTIDYADSVKGRFTISRDNAKNSLYLQMNSLRDEDTAVYYCARESGWYLFDYWGQGTLVTVSS
VL: DIQMTQSPSSLSASVGDRVTITCRASQGISSWLAWYQQKPEKAPKSLIYAASSLQSGVPSRFSGSGSGTDFTLTISSLQPEDFATYYCQQYNSYPPTFGGGTKVEIKR
notes: IgG2 heavy chain, kappa light chain; allotypes G2(n-) and Km3; Alexa Fluor 647 conjugate was used in the species cross-reactivity FACS
Selectivity (binding) [1]: > 100 µg/mL and > 700 nM
Selectivity (binding) [2]: > 100 µg/mL and > 700 nM
Selectivity (binding) [3]: > 100 µg/mL and > 700 nM
EC50 of anti-CD3 induced IL-2 production by cynomolgus T cells, donor 2325 [6]: 2 ng/mL
EC50 of anti-CD3 induced IL-2 production by cynomolgus T cells, donor 32081 [6]: 7 ng/mL
EC50 of anti-CD3 induced IL-2 production by cynomolgus T cells, donor 32750 [6]: 7 ng/mL
EC50 of anti-CD3 induced IL-2 production by cynomolgus T cells, donor 32842 [6]: 11 ng/mL
EC50 of anti-CD3 induced IL-2 production by cynomolgus T cells, donor 33062 [6]: 28 ng/mL
EC50 of anti-CD3 induced IL-2 production by cynomolgus T cells, donor 33080 [6]: 31 ng/mL
EC50 of anti-CD3 induced IL-2 production by cynomolgus T cells, donor 33081 [6]: 8 ng/mL
In vitro stimulation of OX40R+ transfected cells (luciferase) (EC50; N = 4) [7]: 0.33 µg/ml and 2.2 nM
